Measured values: PMC6101539 (Nucleic Acids Research, 2018)

T1: Bacillus subtilis RarA (replication associated recombination protein A) (B. subtilis, UniProt O34528 1-421)
T1 sequence (looked up): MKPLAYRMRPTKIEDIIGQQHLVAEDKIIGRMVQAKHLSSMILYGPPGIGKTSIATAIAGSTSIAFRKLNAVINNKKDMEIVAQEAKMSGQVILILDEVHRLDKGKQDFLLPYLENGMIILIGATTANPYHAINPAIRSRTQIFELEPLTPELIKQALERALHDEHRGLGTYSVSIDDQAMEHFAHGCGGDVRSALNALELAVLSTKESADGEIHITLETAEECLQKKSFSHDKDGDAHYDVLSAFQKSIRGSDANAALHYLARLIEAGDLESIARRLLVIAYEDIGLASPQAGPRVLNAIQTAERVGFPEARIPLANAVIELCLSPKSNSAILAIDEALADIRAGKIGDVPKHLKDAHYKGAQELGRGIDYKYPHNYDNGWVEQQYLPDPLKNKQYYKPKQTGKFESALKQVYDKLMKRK

T2: Bacillus subtilis RarA K51A (Walker A motif mutant) (B. subtilis, UniProt O34528 1-421, K51A)
T2 sequence (looked up): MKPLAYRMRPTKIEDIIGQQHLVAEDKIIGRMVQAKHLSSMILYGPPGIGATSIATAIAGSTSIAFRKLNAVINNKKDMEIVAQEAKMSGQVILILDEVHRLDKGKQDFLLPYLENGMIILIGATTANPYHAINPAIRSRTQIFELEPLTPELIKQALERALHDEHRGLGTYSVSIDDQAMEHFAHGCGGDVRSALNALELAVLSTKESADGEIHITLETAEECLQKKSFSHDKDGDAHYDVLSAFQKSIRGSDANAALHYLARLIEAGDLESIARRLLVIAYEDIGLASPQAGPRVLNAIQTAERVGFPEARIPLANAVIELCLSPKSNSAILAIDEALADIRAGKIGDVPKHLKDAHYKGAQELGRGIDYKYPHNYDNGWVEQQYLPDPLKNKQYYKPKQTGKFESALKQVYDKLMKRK

T3: RarA (Bacillus subtilis, UniProt O34528 1-421)
T3 sequence: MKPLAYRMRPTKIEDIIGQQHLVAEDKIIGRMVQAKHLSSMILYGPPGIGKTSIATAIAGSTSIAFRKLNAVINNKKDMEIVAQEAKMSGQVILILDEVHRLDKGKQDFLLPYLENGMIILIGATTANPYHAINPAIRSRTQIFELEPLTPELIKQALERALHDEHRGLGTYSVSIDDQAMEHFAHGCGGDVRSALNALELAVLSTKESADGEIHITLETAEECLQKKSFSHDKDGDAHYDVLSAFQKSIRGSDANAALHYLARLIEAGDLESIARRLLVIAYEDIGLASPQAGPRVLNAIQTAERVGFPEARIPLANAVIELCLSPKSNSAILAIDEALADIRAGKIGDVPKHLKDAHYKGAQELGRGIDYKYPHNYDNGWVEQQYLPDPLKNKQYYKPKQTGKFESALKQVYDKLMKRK


How the values were obtained:
[1] = target: T1, Bacillus subtilis RarA (replication …); test: native gel or EMSA
[2] = target: T2, Bacillus subtilis RarA K51A (Walker A …); test: native gel or EMSA
[3] = target: T3, RarA; test: EMSA

binding result [1]	binding result [2]	Binder	Kd [3] [nM]
binds	binds	Bacillus subtilis SsbA (single stranded binding protein A) (natural protein, B. subtilis, UniProt P37455 1-172, looked up) MLNRVVLVGRLTKDPELRYTPNGAAVATFTLAVNRTFTNQSGEREADFINCVTWRRQAENVANFLKKGSLAGVDGRLQTRNYENQQGQRVFVTEVQAESVQFLEPKNGGGSGSGGYNEGNSGGGQYFGGGQNDNPFGGNQNNQRRNQGNSFNDDPFANDGKPIDISDDDLPF	–
binds	–	SsbBA chimera (SsbB with the last 9 terminal acidic residues of SsbA) (other, B. subtilis, UniProt C0SPB6 1-113, looked up) MFNQVMLVGRLTKDPDLRYTSAGAAVAHVTLAVNRSFKNASGEIEADYVNCTLWRKTAENTALYCQKGSLVGVSGRIQTRSYENEEGVNVYVTEVLADTVRFMDPKPREKAADDISDDDLPF	–
–	–	dsDNA (100U/100D) (dsDNA) DNA 1: GGGCGAATTGGGCCCGACGTCGCATGCTCCTCTAGACTCGAGGAATTCGGTACCCCGGGTTCGAAATCGATAAGCTTACAGTCTCCATTTAAAGGACAAG DNA 2: CTTGTCCTTTAAATGGAGACTGTAAGCTTATCGATTTCGAACCCGGGGTACCGAATTCCTCGAGTCTAGAGGAGCATGCGACGTCGGGCCCAATTCGCCC	~37
